Data from the supplement of paper PMC9170038.

Key:
MS2 coat protein [1] = test: apparent KD of MS2 coat protein, switch ON state; designed switch direction (-1 OFF switch, 1 ON switch): -1; higher = weaker reporter binding; conditions: FMN input: 0 or 200 uM; Eterna round: R93 (includes R88 designs)
Procedure, shortened: (§1)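 Illumina sequencing clusters were used for on-chip transcription of designed RNA switches. Titration with SNAP-549-labelled MS2 coat protein followed, in twofold steps from 0.7 or 1.5 nM to 3 µM in 100 mM Tris-HCl pH 7.5, 80 mM KCl, 4 mM MgCl2, without or with constant ligand. Apparent KD is each design's median of fits to normalised cluster binding curves.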

MS2 coat protein [2] = test: apparent KD of MS2 coat protein, switch OFF state (with FMN for OFF switches, without FMN for ON switches); designed switch direction (-1 OFF switch, 1 ON switch): -1; higher = weaker reporter binding; conditions: FMN input: 0 or 200 uM; Eterna round: R93 (includes R88 designs)
Procedure, shortened: as §1

| Sequence | apparent KD of MS2 coat protein (MS2 coat protein [1]) [nM] | apparent KD of MS2 coat protein (MS2 coat protein [2]) [nM] |
| --- | --- | --- |
| AACAGGACAGGAUAUACAUGAGGAUCACCCAUGUGAAGAUUAAGAAGAAACCCACAAAGUAGAAGGGUCCUGGA [Ruby 93] | 25 | 51 |
| AAAACACAUGAGGAUCACCCAUGUGAGGAUAUGCAAAACCCAUAUAAAAAGGGAAAAAGCAGAAGGCACAAAAA [wbt round 1 mod 12] | 22.4 | 27.8 |
| AUAAUACAUGAGGAUCACCCAUGUCAGGAUAUGCUAAAAUUAAAAUUAAAUCAAAAAUGUAGAAGGGACUAAAU [Exclusion Z3] | 49.8 | 42.9 |
| AAGUUAUUAGGAUAUACUUGUGCGAUUAAUACGCUGAUAGUACAUGAGGAUCACCCAUGUAGAAGGAAUAAAAA [JR_Exc002_Sub410] | 33.4 | 21.2 |
| AGUGAGUGAGGAUAUGCCUGAAGAAUAAAAGAAAUAACGAGGCAGAAGGCACAUGAGGAUCACCCAUGUACACA [May 65] | 32.1 | 28.2 |
| GAAAAUGGAGGAUAUACAUGAGGAUCACCCAUGUGUAAAAAAAAUUACACAAAAGAAAGUAGAAGGCCAUAAAG [Mat - Exclusion 3 - Mayanna mod - D106] | 49.8 | 138 |
| GGAAAACAUGAGGAUCACCCAUGUAAGGAUAUGCUAAAAAAAAAAAAAAACCCACCAGGCAGAAGGUACUAAAG [Janelle Amethyst 18 Mod 2 - Jieux - Exclusion 1] | 20.4 | 26.8 |
| AAAAAACAUGAGGAUCACCCAUGUCAGGAUAUCGAAAAGAAAAGAAAAGAAAGAAGAACGAGAAGGGACAAGAA [Menkaura] | 29.3 | 24.5 |
| AUCUAGUCAGGAUAUGACUACAUAAAAAAUAAAAAAUGUAGUCAGAAGGGACAUGAGGAUCACCCAUGUACUAA [Mat - Exclusion 4 - Eli mod - D95] | 26.3 | 29.3 |
| GAAUGUCUAGGAUAUACAUGAGGAUCACCCAUGUGUAAAAAUAAAUACACAAAAGAAAGUAGAAGGAGACAAAG [Mat - Exclusion 3 - Mayanna mod - D122] | 28.5 | 46.5 |
| AGAACACAUGAGGAUCACCCAUGUCAGGAUAUUCAAACAAAAACAAAACAAAACAAACGAAGAAGGGACAAAAG [May 2] | 32.3 | 36 |
| CAAAAGCUAGGAUAUGCUAAUUGUUCCUUAAGUCAAAAUAAACAUGAGGAUCACCCAUGUAGAAGGAGCCCACA [Tegean] | 31.5 | 16.9 |
| AACAAGUCAGGAUAUGCGAAAAGAAAAUAAGAUACACAAAAGCAGAAGGGACAUGAGGAUCACCCAUGUAAAUA [JR_Exc004_Sub011] | 36 | 33.1 |
| AAAAAACAUGAGGAUCACCCAUGUUAGGAUAUUCCUAAAAAAAAAAAAAAAAAAAAUGGAAGAAGGGACAAAAA [excalibur 9] | 21.2 | 20.6 |
| AAAGAUUGAGGAUAUACAUGAGGAUCACCCAUGUAAAAAAAAAAAAGGGUGGAAGAAAGUAGAAGGCAACAAAA [Ex 3 May 46] | 80.6 | 284 |
| AAGAAGACAGGAUAUACAUGAAAGAAAGAAAAGAAAAGAAAACAUGAGGAUCACCCAUGUAGAAGGGUCAAGAA [EteRNA is fun!] | 23.5 | 34.9 |
| AUAAAGUGAGGAUAUGCUAAUAAAUAAAUAGACAAAUAAAUGCAGAAGGCACAUGAGGAUCACCCAUGUAAGAA [Ex 4 Tesla 3] | 28.4 | 28.9 |
| AAGAGGUCAGGAUAUGCCCACCAGGAAAAACGUCCAGGUGGGCAGAAGGGACAUGAGGAUCACCCAUGUAAAGA [Opal 41] | 44.8 | 114 |

| Sequence | apparent KD of MS2 coat protein (MS2 coat protein [1]) [nM] | apparent KD of MS2 coat protein (MS2 coat protein [2]) [nM] |
| --- | --- | --- |
| AGCUAGUGAGGAUAUACGAACAUGUCAAAAGACGUGAAGGGACAUGAGGAUCACCCAUGUAGAAGGCGCUAGCA [JL 74% mod] | 53.4 | 157 |
| GGUUGGCGAGGAUAUACAUGAGGAUCACCCAUGUGAGAGAAAAAAGUGAGAAACAAAAGUAGAAGGCGCUGACG [salish99-ex3-26] | 79.8 | 657 |
| AGAAAGUCAGGAUAUACGAAUAAGAAUAAAGACGAGAUCGGACAUGAGGAUCACCCAUGUAGAAGGGACAAGAA [Diamond 17] | 121 | 74.7 |
| AAAAAACAUGAGGAUCACCCAUGUGAGGAUAUCUGUAUUCAAUCCUCGGAUUGAAUACAGAGAAGGCACAUGAA [Ex1: 611] | 34 | 330 |
| AAGAAGGCAGGAUAUACAAAAUAAAAGAAAAGAAAGAAAGAACAUGAGGAUCACCCAUGUAGAAGGGCCAAGAA [Seankhibre Amenemhet VI] | 58.3 | 37.2 |
| AGCUGGUCAGGAUAUGCGUGAAGAAUAAAACAAAUAACAACGCAGAAGGGACAUGAGGAUCACCCAUGUCAGCA [May 50] | 23.9 | 20.3 |
| AACAGUACAGGAUAUACAUGAGGAUCACCCAUGUGAAAAUUAAGUGGGAAACCACAAAGUAGAAGGGUACUGAA [Mat - Exclusion 3 - Eli mod - D59] | 22 | 114 |
| AACGGGCUAGGAUAUACACAAGCCUCAUAACAAAUAAACAAACAUGAGGAUCACCCAUGUAGAAGGAGCGCAAA [Quraaon] | 33 | 72.5 |
| AAAUGACUAGGAUAUACAUGAGGAUCACCCAUGUGUUAAAAUAAAUACACAAAAGAAAGUAGAAGGAGUCAAAG [Mat - Exclusion 3 - Mayanna mod - D125] | 21.5 | 43.4 |
| ACAAAUGUAGGAUAUACAUGAGGAUCACCCAUGUGGCAGAAACAGCAAACAAGACGAAGUAGAAGGACAACGAC [JR_Exc003-Sub902] | 29.1 | 28.6 |
| GAAGAACAUGAGGAUCACCCAUGUCAGGAUAUGCAGAAGGGAAUAAUAACUUCUGGAAGCAGAAGGGACAAGAA [Ex 1 May 47] | 29.6 | 30.5 |
| CUCAUGUGAGGAUAUGUACAGAAAAAAAUGGGUGAAACUGUACAGAAGGCACAUGAGGAUCACCCAUGUGCCAA [EX4 376: S S Pseudoknot 1] | 52.2 | 16.3 |
| UCCGGACAUGAGGAUCACCCAUGUGAGGAUAUAUAAAGUGGGACUGGAAACAGUCCCAAUAGAAGGCACAUGAA [Celaar] | 21.2 | 19.6 |
| AAAAAACAUGAGGAUCACCCAUGUUAGGAUAUGCUAUGGAAAAUAAAAAUAAAACAUAGCAGAAGGGACAAAAA [Denovo 1] | 21.3 | 32 |
| GAAGUGUUAGGAUAUCGAUGAAUAAUAAAACAAAGGAACAUUGAGAAGGAACAUGAGGAUCACCCAUGUAAAAC [May 82] | 33.4 | 25.6 |
| AAAAAACAUGAGGAUCACCCAUGUAAGGAUAUCGGAAAAGGAAAAAAAAAAAAGAAGACGAGAAGGUACACCAA | 25.9 | 31.5 |
| AAUAAACAUGAGGAUCACCCAUGUCAGGAUAUGCACAAACAAACAAACAAACAAGCAAGCAGAAGGGACACUAC [Amethyst 88] | 25.4 | 28.6 |
